{"source": "the nanobody polyreactivity screen of Harvey et al. (2022)", "data": [{"assay": "yeast display, Sf9 membrane polyspecificity reagent, FACS + sequencing; frameworks hold sequencing errors", "how_it_was_run": "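Genes from sorted yeast were amplified by colony PCR, read by MiSeq 2 × 250 sequencing and filtered on CDR length. These cells carried a synthetic nanobody library in Saccharomyces cerevisiae BJ5465 and were sorted by FACS into low and high (top ~1%) gates on anti-HA and streptavidin fluorescence. Polyreactivity is labelled according to the gate of origin.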", "values": [{"sequence": "QVQLEESGGGLVQAGGSLRLSCAASGSIFRYNAMGWYRQAPGKERELVAAITSGDSTYYADSVKGRFTISRDNAKNTVYLQMNSLKPEDTAVYYCAADLRYIYWSYYYWGQGTQVTVSS", "polyreactivity (PSR sort gate)": "low polyreactivity"}, {"sequence": "QVQLEESGGGLVQAGGSLRLSCAASGSIFSYYVMGWYRQAPGKERELVARNSKRGVTTYYADSVKGRFTISRDNAKNTVYLQMNSLKPEDTAVYFCAASVWRDRIYRYEYWGQGTQVTVSS", "polyreactivity (PSR sort gate)": "high polyreactivity"}, {"sequence": "QVQLEESGGGLVQAGGSLRLSCAASGSIFVYYRMGWYRQAPGKERELVAAISSGGSTHYADSVKGRFTISRDNAKNTVYLQMNSLKPEDTAFYYRNDRAYGNGMGTGYFGKHRYDYWGQGTQVTVSS", "polyreactivity (PSR sort gate)": "low polyreactivity"}, {"sequence": "QVQLEESGGGLVQAGGSLRLSCAASGSIFYYYVMGWCRQAPGKERELVAAISSGGGTNYADSVKGRFTISRDNAKNTVYLQMNSLKPEDTAVYYCAKASAYGLANDYDYWGQGTQVTVSS", "polyreactivity (PSR sort gate)": "low polyreactivity"}, {"sequence": "QVQLEESGGGLVQAGGSLRLSCAASGSILFFNAKGWYRQAPGKERELVADISTGGSTYYADSVKGRFTISRDNAKNTVYLQMNSLKPEDTAVYYCNADYYYFFYTLDYWGQGTQVTVSS", "polyreactivity (PSR sort gate)": "high polyreactivity"}, {"sequence": "QVQLEESGGGLVQAGGSLRLSCAASGSILIYNAMGLYRQATGKERELVAGISRRGASTYYADSVKGRFTISRDYAKNTVYLQMNSLKPEDTAVYYCATRKLRTRGYDYGYWGQGTQVTVSS", "polyreactivity (PSR sort gate)": "low polyreactivity"}, {"sequence": "QVQLEESGGGLVQAGGSLRLSCAASGSILLGYDMGWYRTAPGKERELVASIDTNGGSPYYADSVKGRFTISRDNAKNTVYLQSNSLKPEDTAVYYCNADPSFVGGTYDYWGQGTQVTVSS", "polyreactivity (PSR sort gate)": "low polyreactivity"}, {"sequence": "QVQLEESGGGLVQAGGSLRLSCAASGSTFFLYAMGWYRQAPGKERELVAAITYTDGDTYYADSVKGRFTISRDNAKNTVYLQMNSLKPEDTAVYYCNAGGDEPVYGSGYDYWGQGTQVTVSS", "polyreactivity (PSR sort gate)": "low polyreactivity"}, {"sequence": "QVQLEESGGGLVQAGGSLRLSCAASGSTFGRNTLGSYRPAPGKERELVAVISRRGGITTYADSVKGRFTISRENAKNTVYLQMNSLKPVDTAVYYCNAVSRVYNKGQYGYWGQGTQVSVSS", "polyreactivity (PSR sort gate)": "high polyreactivity"}, {"sequence": "QVQLEESGGGLVQAGGSLRLSCAASGSTFLLYAMGRYRQAPGKEMEMVATISWGGDGTYYADSVKGRFTISRDNAKNTVYLQMNSLIPEDTAVYYCAAESYLVQFYFLYYYWGQGTQVTVSS", "polyreactivity (PSR sort gate)": "low polyreactivity"}, {"sequence": "QVQLEESGGGLVQAGGSLRLSCAASGSTFQLYAMGWYRPAPGKERELVAGISRDGSTYYADSVKGRFTISRDNAKNTVFLQMNSLKPEDTAVYYCAAKYYGNKRDLYYWGQGTQVTVSS", "polyreactivity (PSR sort gate)": "low polyreactivity"}, {"sequence": "QVQLEESGGGLVQAGGSLRLSCAASGSTFSTYSMAWYRHAPGKERELVARITRSDTGTYYADSVKGRFTISRDYAKNTVYLQLNSLKPEDTAVYDCAADGWYDDSGWDYGYDYWGQGTQVTVSS", "polyreactivity (PSR sort gate)": "low polyreactivity"}, {"sequence": "QVQLEESGGGLVQAGGSLRLSCAASGSTFTEYVMGWYRHATGKERELVAAIRSNGGSTYYADSVKGRFTISRDNAKNTVYLQMHSLNPEDTAVYYCNRVYSRRTYNSPLYDDWGQGTQVTVSS", "polyreactivity (PSR sort gate)": "high polyreactivity"}, {"sequence": "QVQLEESGGGLVQAGGSLRLSCAASGSTFTGYAMGWYRQAPGKERELVAAIPISGGRTFYADSVKGRFTISRDNAKNTVYLQMNSLKPEDTAFYYCAAYLRGSKYSFDYWGQGTQVTVSS", "polyreactivity (PSR sort gate)": "high polyreactivity"}, {"sequence": "QVQLEESGGGLVQAGGSLRLSCAASGSTFVPNDMGGYRQAPGKERELVAAITDSGGSTYYADSVKGRFTISRDNAKNTVYLQMNSLKPEDTAVYYCAAEKAEWYYHTVWHFARGEYWGQGTQVTVSS", "polyreactivity (PSR sort gate)": "low polyreactivity"}, {"sequence": "QVQLEESGGGLVQAGGSLRLSCAASGSTFWLNAMGWYRQAPGKESELVASITWSGDSTYYADSVKGRFTISRDNAKNTVYLQMNSLKPEDTAVYYCNTDSILGQIWGATDDYWGQGTQVTVSS", "polyreactivity (PSR sort gate)": "low polyreactivity"}, {"sequence": "QVQLEESGGGLVQAGGSLRLSCAASGSTFWRYAMGWYRQAPGKERELVAAISWNGGSTYYADSVKGRFTISRDNAKNTDYLQMNSLKPEDTSVFYCNRRYPFYSRYNNDYWGQGTQVTVSS", "polyreactivity (PSR sort gate)": "high polyreactivity"}, {"sequence": "QVQLEESGGGLVQAGGSLRLSCAASGSTFYANTMGSYRQAPGKERELVATISIDGSTNYADSVKGRFTISRDNAKNTVYLQMNTLKPEDTAVYYCNADVYSVLYGYWGQGTQVTVSS", "polyreactivity (PSR sort gate)": "low polyreactivity"}, {"sequence": "QVQLEESGGGLVQAGGSLRLSCAASGSTFYGYAMGWNRQAPGKERELVAAITRSGGSTYYADSVKGRFTISRDNAKNTVYLQMNSLKPEDTEVYYCNKYGYKGGVGYDYWGQGTQVTVSS", "polyreactivity (PSR sort gate)": "high polyreactivity"}, {"sequence": "QVQLEESGGGLVQAGGSLRLSCAASGSTFYPNAMGWYRQAPGKERELVAAISQRGGRKYYADSVKGRFTISRDNAKNTVYLQMNSLKPEDTAVYYCAATYQGYNSWYSFGYWGQGTQVTVSS", "polyreactivity (PSR sort gate)": "high polyreactivity"}, {"sequence": "QVQLEESGGGLVQAGGSLRLSCAASGSTFYRYAMGCYRQAPGKERELVAAMSRGGGRTNYADSVKGRFTISRDNAKNTVYLQMNSLKPEDTAVYYGAAYTYSFRANHDYWGQGTQVTVSS", "polyreactivity (PSR sort gate)": "high polyreactivity"}, {"sequence": "QVQLEESGGGLVQAGGSLRLSCAASGSTFYRYTMGWYRQAPGTERELVAAISRSGGRTYYADSVKGRFTISRDNAKNTVYLQMNSLKPEDTAVYYCAAARRYGRYFGYPMEYWGQGTQVTVSS", "polyreactivity (PSR sort gate)": "high polyreactivity"}, {"sequence": "QVQLEESGGGLVQAGGSLRLSCAASGSTFYSNAIGWYRQAPGKEREFVAAISLRGGSTYYADSVKGRFTISRDNAKNTVYLQMNSLKPEDTAVYYCAVDYYRRNGLKVYYRYDYWGQGTQVTVSS", "polyreactivity (PSR sort gate)": "high polyreactivity"}, {"sequence": "QVQLEESGGGLVQAGGSLRLSCAASGSTIPRNAMGWYRQAPGKERELVAAITSGGSTNYADSVKGRFTISRDNAKNTVYLQMNSLKPEDTSVYYCAADEQVNTQYVVWGDYWGQGTQVTVSS", "polyreactivity (PSR sort gate)": "low polyreactivity"}, {"sequence": "QVQLEESGGGLVQAGGSLRLSCAASGSTLIDNVMVWYRQAPGKERELVASITSSDGTTYADSVKGRITISRDNAKNTVYLQMNSLIPEDTAVYYCAARPWYGTYNYWGQGTQVTVSS", "polyreactivity (PSR sort gate)": "low polyreactivity"}, {"sequence": "QVQLEESGGGLVQAGGSLRLSCAASGSTLKLNAMGWYRQAPGKERELVASINFSGGSTYYAYSVKGRFTISRDNAKNTVYLQMNSLKPEDTAVYYCAAEASSYSRSVRWRYVYYYWGQGTQVTVSS", "polyreactivity (PSR sort gate)": "high polyreactivity"}, {"sequence": "QVQLEESGGGLVQAGGSLRLSCAASGTFVTYMGWYRQAPGKERELVAAIRNGGSTNYADSVKGRFTISRDNAKNTVYLQMNSLKPEDTAVYYCAARVTYSRGYRGGSRTKYDYWGQGTQVTVSS", "polyreactivity (PSR sort gate)": "low polyreactivity"}, {"sequence": "QVQLEESGGGLVQAGGSLRLSCAASGYIFDYNAMGWYRQAPGKERELVAVISRGGRTYYADSVKGRFTISRDNAKNTVYLQMNILKPEDTAVYYCAADRQSYPYDYWGQGTQVTVSS", "polyreactivity (PSR sort gate)": "high polyreactivity"}, {"sequence": "QVQLEESGGGLVQAGGSLRLSCAASGYTFATYAMGWSRQAPGKERELVAAISQGGDRTNYADSVKGRFTISRDNAKITVYLQMNSLKPEDTSVYYCAVRYASRQSRFYYWGQGTQVTVSS", "polyreactivity (PSR sort gate)": "high polyreactivity"}, {"sequence": "QVQLEESGGGLVQAGGSLRLSCAASRRIFGSNAMGWYRQAPAKERELVAVITSGGRTYYADSVKGRFTISRDNAKNTVYLQMNSLKPGDTSVYYCNAYYKAAYDYWGQGTQVTVSS", "polyreactivity (PSR sort gate)": "high polyreactivity"}, {"sequence": "QVQLEESGGGLVQAGGSLRLSCAGSGRIFAYYPMGWYRQAPGKERELVAAISRSGVSTYYADSVKGRFTISRDNAKNTVYLQMNSLKPEDTAVYYCAATYWRRGGYRMEYWGQGTQVTVSS", "polyreactivity (PSR sort gate)": "low polyreactivity"}, {"sequence": "QVQLEESGGGLVQAGGSLRLSCAPSGYNYRKNVIGWYRQAPGKERELVAAISARGGSTYYADSVKGRFTISRDNAKNTVYLQMYSLKAEVTAVYFCNTDGYLYPYDSWGLGTQVTVSS", "polyreactivity (PSR sort gate)": "high polyreactivity"}, {"sequence": "QVQLEESGGGLVQAGGSLRLSCASSGSTFPYNAMGWYRQAPGKERELVAANTSGASTNYADSVKGRFTISRENAKNTVYLQMNRLKPEDTAVYYCAAQSFGKRIWSPRYQLNYWGQGTQVTVSS", "polyreactivity (PSR sort gate)": "low polyreactivity"}, {"sequence": "QVQLEESGGGLVQAGGSLRLSCDASGRIFGGYAMGWYRQAPGKERELVAAISASGGRTYYADSVKGRFTISRDNAKNTVYLQMNSLKPEDTAVYYCAASFRRTSLRWHGEYWGQGTQVTVSS", "polyreactivity (PSR sort gate)": "high polyreactivity"}, {"sequence": "QVQLEESGGGLVQAGGSLRLSCPASGITFYRYVMGWNRQAPGKERELDAAINWSTGTTNYADSVKGRFTISRDNAKNTVYLQMNSLKPEDTAVYYCNARYRLRFIYSLRYDYWGQGTQVTVSS", "polyreactivity (PSR sort gate)": "high polyreactivity"}, {"sequence": "QVQLEESGGGLVQAGGSLRLSCPASGSTFIVNVMGWYRQAPGKERELVAAINSGGSTDYADSVKGRFTISRDNAKNTVYLQMNSLKPEDTAVYYCNAYHIVIYDYWGQGTQVTVSS", "polyreactivity (PSR sort gate)": "low polyreactivity"}, {"sequence": "QVQLEESGGGLVQAGGSLRLSCSAYGFTFSRYDMGWYRQAPGKERELVAAISWSGGSTYYADSVKGRFTISRDNAKNSVYLQMNSLKPEDTAVYYCAKPGWSVTGESWGQGTQVTVSA", "polyreactivity (PSR sort gate)": "high polyreactivity"}, {"sequence": "QVQLEESGGGLVQAGGSLRLSFAASGFTFVRNTMGWDRQAPGKERELVAAISRSGGSTYYADSVKGRFTISRDKAKNTVYLQMNSLKPEDTAVYYCNAYRYVHYDWGQGTQVTVSS", "polyreactivity (PSR sort gate)": "high polyreactivity"}, {"sequence": "QVQLEESGGGLVQAGGSLRLSSAASGFTFAFYAMGWYRQAPGKERELVAAISRRGGSTTYADSVKGRFTISRDNAKNTVYLQMNSLKPEDTAVYYCNAVSTRNPGPDYYYWGQGTQVNVSS", "polyreactivity (PSR sort gate)": "high polyreactivity"}, {"sequence": "QVQLEESGGGLVQAGGSLRLSYAASGSIYSYYAMGWYRQAPGKERELVAAISRSGTSTYYADSVKGRFTISRDNAKNTVYLQMNSLKPEDTAVYYFGYYYGGDYWGQGTQVTVSS", "polyreactivity (PSR sort gate)": "high polyreactivity"}, {"sequence": "QVQLEESGGGLVQAGGSLRLTCAASGLTSRNYAMGWYRHAPRKARELVAAISKSGSRTYYADSVKGRFTISRDNAKNTVYLQMNSLKPEDTAVYYCATDYLDGTSYDYWGQGTQVTVSS", "polyreactivity (PSR sort gate)": "high polyreactivity"}, {"sequence": "QVQLEESGGGLVQAGGSLRLTCAASGRIFTPYAMGWYRQAPGKQTELVADIRDGSTYYADSVKGRFTISRDNAKNTVYLQMNSLKPEDTAVYYSRYYIWVWWSGAYDYWGQGTQVTVSS", "polyreactivity (PSR sort gate)": "low polyreactivity"}, {"sequence": "QVQLEESGGGLVQAGGSLRLTCAASGRNFTYYAMGWSIQAPGNEREIVAAISSSGGSTSYADSVKGRFTISRDNAKNTVYLQMNSLKPEDTAVYYCAAVTRDYGSRSGLDYWGQGTQVTVSS", "polyreactivity (PSR sort gate)": "high polyreactivity"}]}]}
